Experimental data from patent publication US20170218430.

System: methylarginine peptide (SEQ ID NO:1)

Row | Substance | demethylation of the peptide, read as gain of anti-RG signal on slot blot (6 hours, 30 C) | demethylation of the peptide, read as loss of anti-mRG signal on slot blot (20 hours, 22.5 C)
1 | TbJmJ1 fusion protein (MBP-JmJ1, Jumonji Fusion Protein 1) | giving a positive reaction with anti-RG in a dose-dependent manner | –
2 | TbJmJ2 fusion protein (MBP-JmJ2, Jumonji Fusion Protein 2) | giving a positive reaction with anti-RG in a dose-dependent manner | indicates a concentration-dependent decrease in the methylation status of the GmRG peptide
